We go through eight molecules from PMC10031729, “Interaction of methionine sulfoxide reductase B5 with SlMYC2 stimulates the transcription of MeJA-mediated autophagy-related genes in tomato fruit”.

Data set [1] addresses T1, MBP-SlMYC2 (Solanum lycopersicum, UniProt A0A3Q7HRZ6 1-689). Briefly: competition; unlabeled mutant competitor vs SlATG13b probe; Chemiluminescent EMSA kit (Beyotime); buffer, salt, pH and temperature not stated. The following applies: protein: recombinant; tags: N-terminal MBP; chain copies: 2.
Data set [2] deals with T1, MBP-SlMYC2. Briefly: EMSA; Chemiluminescent EMSA kit (Beyotime); buffer, salt, pH and temperature not stated. To be noted: protein: recombinant; tags: N-terminal MBP; chain copies: 2; label: biotin.
Data set [3] concerns the target T1, MBP-SlMYC2. In words: competition; unlabeled mutant competitor vs SlATG18h probe; Chemiluminescent EMSA kit (Beyotime); buffer, salt, pH and temperature not stated. The following applies: protein: recombinant; tags: N-terminal MBP; chain copies: 2.
The target of data set [4] is T1, MBP-SlMYC2. Briefly: competition; unlabeled mutant competitor vs SlATG13a probe; Chemiluminescent EMSA kit (Beyotime); buffer, salt, pH and temperature not stated. The following applies: protein: recombinant; tags: N-terminal MBP; chain copies: 2.
The target in data set [5] is T1, MBP-SlMYC2. Briefly: competition; unlabeled mutant competitor vs SlATG18a probe; Chemiluminescent EMSA kit (Beyotime); buffer, salt, pH and temperature not stated. To be noted: protein: recombinant; tags: N-terminal MBP; chain copies: 2.

T1 sequence (A0A3Q7HRZ6 whole entry): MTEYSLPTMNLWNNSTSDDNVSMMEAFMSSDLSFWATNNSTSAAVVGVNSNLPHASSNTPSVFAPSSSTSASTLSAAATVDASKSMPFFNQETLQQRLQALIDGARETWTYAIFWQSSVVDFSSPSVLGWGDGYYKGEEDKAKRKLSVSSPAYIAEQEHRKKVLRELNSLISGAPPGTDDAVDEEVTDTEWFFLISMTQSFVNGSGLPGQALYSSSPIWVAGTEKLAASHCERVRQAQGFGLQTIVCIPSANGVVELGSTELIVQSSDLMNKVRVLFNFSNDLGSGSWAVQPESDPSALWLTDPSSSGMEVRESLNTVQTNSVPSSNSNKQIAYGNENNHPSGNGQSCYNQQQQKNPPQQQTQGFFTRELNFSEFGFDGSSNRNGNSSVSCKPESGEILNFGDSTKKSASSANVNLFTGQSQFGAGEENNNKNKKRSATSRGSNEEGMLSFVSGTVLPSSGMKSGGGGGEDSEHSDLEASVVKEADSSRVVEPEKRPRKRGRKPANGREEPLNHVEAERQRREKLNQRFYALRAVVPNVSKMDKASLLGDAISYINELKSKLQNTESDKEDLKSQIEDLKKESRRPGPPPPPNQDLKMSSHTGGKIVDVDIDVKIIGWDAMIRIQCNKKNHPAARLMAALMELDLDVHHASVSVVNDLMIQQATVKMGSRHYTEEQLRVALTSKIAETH

B1: SlATG13b mutant probe (G/E-box to TTTTTTTT) (dsDNA)
DNA 1: TTTCTTTGTTTCTTTTTTTTTTTTTACTTC
DNA 2: GAAGTAAAAAAAAAAAAAGAAACAAAGAAA
As to B1, the binding result with MBP-SlMYC2 [1] is listed as “no binding”.

B2: SlATG18a promoter probe (dsDNA)
DNA 1: GGATTGGATCTACACGTGGCATGTAGGATA
DNA 2: TATCCTACATGCCACGTGTAGATCCAATCC
Consider B2, for which, in the data set with MBP-SlMYC2 [2], the binding result is “binds”.

B3: SlATG13b promoter probe (dsDNA)
DNA 1: TTTCTTTGTTTCACACGTTCTTTTTACTTC
DNA 2: GAAGTAAAAAGAACGTGTGAAACAAAGAAA
In the case of B3, the binding result in the data set with MBP-SlMYC2 [2] was “binds”.

B4: SlATG18h promoter probe (dsDNA)
DNA 1: ATTCCATATAACACATGTCTCCGTTTCATC
DNA 2: GATGAAACGGAGACATGTGTTATATGGAAT
For the molecule B4, the binding result in the data set with MBP-SlMYC2 [2] is recorded as “binds”.

B5: SlATG18h mutant probe (G/E-box to TTTTTTTT) (dsDNA)
DNA 1: ATTCCATATATTTTTTTTCTCCGTTTCATC
DNA 2: GATGAAACGGAGAAAAAAAATATATGGAAT
With B5, the binding result with MBP-SlMYC2 [3] is “no binding”.

B6: SlATG13a mutant probe (G/E-box to TTTTTTTT) (dsDNA)
DNA 1: GAGATTTTTTTTTATGTTTTTTTTTAAATT
DNA 2: AATTTAAAAAAAAACATAAAAAAAAATCTC
As for B6, the binding result with MBP-SlMYC2 [4] was “no binding”.

B7: SlATG18a mutant probe (G/E-box to TTTTTTTT) (dsDNA)
DNA 1: GGATTGGATCTTTTTTTTTCATGTAGGATA
DNA 2: TATCCTACATGAAAAAAAAAGATCCAATCC
For B7, the binding result with MBP-SlMYC2 [5] is listed as “no binding”.

B8: SlATG13a promoter probe (dsDNA)
DNA 1: GAGAACACTTGCTATGTCACGTGCTAAATT
DNA 2: AATTTAGCACGTGACATAGCAAGTGTTCTC
Consider B8, for which the binding result in the data set with MBP-SlMYC2 [2] was “binds”.
